# From PMC9870165
# What was measured:
# [1] = target: ZIKV E protein on wild-type Zika virus H/PF/2013 in culture supernatant (Zika virus (strain H/PF/2013)); assay: ELISA; ZIKV capture ELISA: virus in culture supernatant captured by plate-bound mAb 4G2; serially diluted Fabs added 1 h at 37°C; anti-human Fab alkaline phosphatase; EC50 from titration
# [2] = target: recombinant ZIKV E protein (ectodomain of Zika virus envelope glycoprotein E) (Zika virus); assay: crystal structure; recombinant ZIKV E and G9E Fab mixed 1:1.2 at room temperature for 30 min, complex purified on Superdex 200-increase; crystals in 100 mM HEPES pH 7.5, 10% (w/v) PEG 8000; 3.4 Å
substance,measurement,setting,value
"G9E-S1/2 Fab (paratope mutant D53A, D54A, D57S, Q58A, K76S)",fold weaker binding than G9E-S2,[1],30 fold
"G9E-S2 Fab (paratope mutant D57S, Q58A, K76S)",fold reduction in binding compared to WT G9E,[1],10 fold
recombinant ZIKV E protein (ectodomain of Zika virus envelope glycoprotein E) (domain or fragment),stoichiometry N,[2],2
